The text below walks through data of patent US20250236663A1 (NEURACLE SCIENCE, published 2025).

The target in assay [1] is T1, FAM19A5 mutant M8 (human).
T1 construct: FAM19A5 with region 8 replaced by the consensus of FAM19A1-4; The entry already carries the changes
T1 chain: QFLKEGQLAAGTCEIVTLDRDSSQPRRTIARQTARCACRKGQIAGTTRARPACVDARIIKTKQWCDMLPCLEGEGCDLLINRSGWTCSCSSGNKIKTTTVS
In words: ELISA on phage-displayed FAM19A5 mutants; y axis without label. (In general: In an ELISA, binding on a coated surface is turned into a signal by an enzyme label.)

Assay [2] has as its target T2, FAM19A5 mutant M6 (human).
T2 construct: FAM19A5 with region 6 replaced by the consensus of FAM19A1-4; The entry already carries the changes
T2 chain: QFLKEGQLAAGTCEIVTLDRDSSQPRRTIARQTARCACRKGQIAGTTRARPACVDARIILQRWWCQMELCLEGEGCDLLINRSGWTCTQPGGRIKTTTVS
The assay is described as above.

For assay [3], the target named is T3, FAM19A5 mutant M7 (human).
T3 construct: FAM19A5 with region 7 replaced by the consensus of FAM19A1-4; The entry already carries the changes
T3 chain: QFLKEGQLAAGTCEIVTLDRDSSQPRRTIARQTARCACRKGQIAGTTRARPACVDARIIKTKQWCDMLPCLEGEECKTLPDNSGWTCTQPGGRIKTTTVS
The assay is described as above.

Assay [4] concerns the target T4, FAM19A2 (UniProt Q8N3H0 31-131, limits assumed).
T4 construct: Member of the group other FAM19A subfamily proteins; also called other FAM19A subfamily proteins; other proteins in the FAM19A subfamily
In words: Western blot on extracts of HEK293T cells stably transfected with FAM19A family genes. On the procedure:
(§1) HEK293T cells stably transfected with genes encoding the FAM19A family of proteins were lysed in buffer containing 50 mM Tris-HCL (pH 6.8), 2% SDS, 10% glycerol, 100 mM mercaptoethanol, and bromophenol blue. Whole-cell extracts were resolved on SDS-polyacrylamide (PAGE) gels and transferred to nitrocellulose blotting membranes in a Bio-Rad Trans-Blot electrophoresis apparatus (Hercules, CA, USA). The blots were blocked in Tris-buffered saline containing 0.3% Tween 20 and 5% skim milk, and incubated with anti-FAM19A5 antibody at room temperature for 3 h. They were then washed three times with TBS/0.3% Tween 20. Antibody binding was subsequently detected by incubation with secondary antibodies linked to horseradish peroxidase (Jackson ImmunoReserch Laboratories, West Grove, PA, USA). The blots were washed three times, and immunoreactive bands were visualized by exposure to X-ray film for 0.5 or 10 min, after application of GE healthcare ECL reagents (Buckinghamshire, UK). […] Cells were then blocked with 3% BSA and 0.1% Triton X-100 in PBS for 30 min at room temperature. Primary antibody (the anti-FAM19A5 antibody 1-65) was applied overnight at 4° C. After several washes with PBS, appropriate secondary antibodies were applied for 30 min. Subsequently, the cells were washed, mounted, and observed under a fluorescence or confocal microscope (LSM700; Zeiss, Goettingen, Germany). Nuclei were stained with Hoechst 33342.

The target in assay [5] is T5, FAM19A4 (UniProt Q96LR4 36-140, limits assumed).
T5 construct: Member of the group other FAM19A subfamily proteins; also called other FAM19A subfamily proteins; other proteins in the FAM19A subfamily
T5 sequence (Q96LR4 36-140 limits assumed): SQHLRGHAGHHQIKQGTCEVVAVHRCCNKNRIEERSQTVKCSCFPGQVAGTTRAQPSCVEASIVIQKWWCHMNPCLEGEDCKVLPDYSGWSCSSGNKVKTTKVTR
Described as above. The method, then: as §1

The target in assay [6] is FAM19A1 (UniProt Q7Z5A9 20-133). The description is as above. On the procedure:
as §1

Assay [7] addresses T6, FAM19A3 (UniProt Q7Z5A8 31-133, limits assumed).
T6 construct: Member of the group other FAM19A subfamily proteins; also called other FAM19A subfamily proteins; other proteins in the FAM19A subfamily
The description is as above. The method, then: as §1

Assay [8] has as its target T7, FAM19A5-M2.
T7 construct: also called FAM19A5 mutant M2
T7 FAM19A5 mutant: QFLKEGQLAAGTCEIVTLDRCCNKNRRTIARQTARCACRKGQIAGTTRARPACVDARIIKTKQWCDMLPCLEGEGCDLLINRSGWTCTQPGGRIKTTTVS
Description: ELISA on phage-displayed FAM19A5 mutants; y axis without label; IgG only bars 0.02 to 0.2.

Assay [9] concerns the target T8, FAM19A5-M1.
T8 construct: also called FAM19A5 mutant M1
T8 FAM19A5 mutant: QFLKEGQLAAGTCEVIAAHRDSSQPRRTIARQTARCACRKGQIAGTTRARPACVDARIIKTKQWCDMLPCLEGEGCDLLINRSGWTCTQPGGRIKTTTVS
The assay is described as above.

The target of assay [10] is T9, FAM19A5-M4.
T9 construct: also called FAM19A5 mutant M4
T9 FAM19A5 mutant: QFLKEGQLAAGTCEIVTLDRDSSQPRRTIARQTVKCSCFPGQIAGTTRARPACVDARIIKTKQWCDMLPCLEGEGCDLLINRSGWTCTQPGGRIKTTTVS
The assay is described as above.

Assay [11] concerns the target T10, FAM19A5-M5.
T10 construct: also called FAM19A5 mutant M5
T10 FAM19A5 mutant: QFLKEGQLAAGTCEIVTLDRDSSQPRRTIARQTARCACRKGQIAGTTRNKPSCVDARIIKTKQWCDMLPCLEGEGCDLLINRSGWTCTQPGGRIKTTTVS
The description is as above.

For assay [12], the target named is T11, FAM19A5-M3.
T11 construct: also called FAM19A5 mutant M3
T11 FAM19A5 mutant: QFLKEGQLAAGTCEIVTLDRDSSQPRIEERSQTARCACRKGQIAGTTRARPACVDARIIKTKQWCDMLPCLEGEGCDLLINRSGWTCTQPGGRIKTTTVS
The assay is described as above.

T4 sequence (Q8N3H0 31-131 limits assumed): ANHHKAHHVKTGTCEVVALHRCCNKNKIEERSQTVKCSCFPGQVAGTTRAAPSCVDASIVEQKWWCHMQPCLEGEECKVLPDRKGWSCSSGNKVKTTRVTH
T6 sequence (Q7Z5A8 31-133 limits assumed): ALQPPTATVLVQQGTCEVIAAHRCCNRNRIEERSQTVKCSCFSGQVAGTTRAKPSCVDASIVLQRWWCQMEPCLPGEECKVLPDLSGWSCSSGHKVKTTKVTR

B1: chimeric anti-FAM19A5-IgG2/4 monoclonal antibody (1-65) (antibody, V domains shown)
VH: AVTLDESGGGLQTPGGALSLVCKASGFTFSSYQMGWVRQAPGKGLEWVGVINKSGSDTSYGSAVKGRATISRDNGQSTVRLQLNNLRAEDTGTYFCAKGSASYITAATIDAWGHGTEVIVSS
VL: ALTQPSSVSANPGETVKITCSGGGSSGYGYGWYQQKSPSSAPLTVIYWNDKRPSDIPSRFSGSKSGSTHTLTITGVQAEDEAVYFCGNDDYSSDSGYVGVFGAGTTLTVL
notes: Chicken-derived variable domains; also called anti-FAM19A5 antibody 1-65; Anti-FAM19A5 (1-65)
B1: the binding result in assay [1], in assay [2], in assay [3], in [4], in [5] and in assay [6] was “no binding” throughout. The binding result is on record as “no binding” in [7]; “binds” in [8]; “binds” in [9]; “binds” in assay [10]; “binds” in assay [11]; “binds” in [12].
